Data reported in the DeepSol protein solubility set.

Assay: soluble on expression in E. coli; label from the status in PepcDB or PDB records

Soluble on expression in E. coli, not soluble:
MARNPRTTVRRILNSAPRSLLIQSVTIVALDPTDNNHGSHQPGSNGPSNSSTQADNFETETTADEERQKEDGVEDELEDEETTGFIDEDGEIRYPVDEVGNYEIDQEAETDESFYLDTQRDSSLCDERSQLCRSLSDQNLRTTFFLITTTNSKAAILRYLHFHNVSQDSILRKLLLNDSHLTLVEVCNLCAQNIELCKCEDMQEKCQLIFGDLKKWLEVILNSFANIMMKTKTTILEGYNSSSPINKGIFKKKLLSEMADNEMWMHFESSFDGIKVHKNGNQNIWPYSLLNLDLEDVHRASPQALILAALFIGFKNPTTKIHDRLTQWILLQMDEHVFFSEGVAWKADLTCANHDDPARRIVYNQCGLRSSGSCNFCLNQETECKINDEYTTLRENLTGSCPSTMNDGLRQRNQHSHFHKHVLYMHLCPHYSPKGNGICSRQNRWIFHQHLRFHLDFVRCPAKLHSVLVLRKHCIHGLYRLCIEPQSITDETLHLKQVLYHLARMTELYGSLFPLSTQWFEYFYHTIQRTLVPEIYNGLGMSIMRKMSALQEIKTEAAFRLHTNHQFRTEANLKMCYELGLLRRLKRISVVPTPPQYQQFCETGDVFLNVVYHDGIRYSNYCNKKTDDSNVTFIEYARVRFAKIIGMLLKENNTDLRFILKKYCNTNDHLIDISNKLYEEDVPQMHIQNWVDSVSKSSFGGRVTLTNTVVVVSADSIVGHAVVVKRNNNCVALPFSRRISLS
MARRNDHTREELVALTLDRVKQFLDTHSYHELSLRKVATMIGYVPSTLVNVFGNYNLLLLHVVAQTLDELAQEAQQAVKSTTYPKDALYQLAYCYHDFAKRNPYRWQLIFEHNMNGEMLPEWQAQRINNMTSMLEDLLKVIAPLRSEQEVLQASRVLWSGVHGITILSVDDKFFANEPIDGNALINNLLNHYLANW
MARTNLQFANLELFVDQLTGAMTFTRTSLLTAAQGALVTRFAEIDGRVKKNLDRVLAAFRQHRLGVHHFSSMTGYGHGDLGREVLDRVFAQVMGAEAALVRVQFVSGTHAIATALFGVLRPGDELISLAGPPYDTLEEVIGLRGQGQGSLKDFGIHYRELPLLASGEPDWGAIATCVQPQTRMVLIQRSCGYTWRPSLSLEDIGKMIQLIKSQNPDVVCFVDNCYGEFVETQEPPHVGADLIAGSLIKNPGGTIATAGGYLAGRADLIEQASYRLTAPGIGHEGGATFDQHRLLFQGLFLAPQMVGEALKCAHLLAYVFDELGYPVNPAPLSRRRDVIQAVQLGSPEKLIAFCRILQRYSPVGSYLDPVPAPMPGYADDLVMAGGTFIDGSTSELSADGPLRPPYIVFCQGGTHHTHMALILEALLEAQVFLEHHHHHH
MARVRIVAKKNGPYLLEVDGKVQTALCRCGHSNNKPYCDGTHARVGFQADEKVAFEAEFAAALEHHHHHH
MASETSQFGIETDSITLQRYVLQEQRKHADASGELTALLTNMLVAIKAIASATQKAGLAKLYGIAGATNVQGEEVKKLDVLSNELMINMLKSSYTTCLLVSEENDELIEVEEQRRGKYIVTFDPLDGSSNIDCLVSIGTIFGIYKKRGDGPATVDDVLKPGKEMVAAGYALYGSATMVVLSTGDGVNGFTLDPSIGEFILTHPNMKCKEKGSIYSLNEGYAQTWSKGFAEYIRTRKYPEAGKKAMGQRYVGSMVADVHRTILNGGIFLYPPTVSAPNGKLRLLYECNPMAYIIEQAGGLATTGKERILDIQPTQIHQRAPIILGSKLDVEEALEYLAKYDN
MASFARRAMSLAQIPSARISSGAASIGQRRCLAGAADHHGSTKVDFWKQPTNPGNWKEEHFVLISLSGWGLLFYSGYKLATGGKKEYTMSFIVTRKTFYGETSHSHALCFPF
MASFSILSIFKIGVGPSSSHTIGPMEAGARFCESLKGILEQVVRVQITLHGSLALTGKGHLSDEAVLIGLHGIYANELEVTTKKALLHEALENKVLKLANQHHIPFDYAKDLIFDNKPLTRHQNALILKAFNSKNEVLKEETYYSVGGGFVYTEKELDNLSEEDGNESIAYDFSSAKELLELCQKHQKSIAEIVRLRENALKNHPDATMVKIYHAMLECYDNGANSKERYLPGSLKVTRLAPSIKTRLEKHPTSGKDPLALIDYISLYARAIAEENASGGKVVTAPTNGACAVVPSVLLYAKNHLFENLSQKAINDFLLTSAAIGYLYKKNASLSGAEAGCQAEIGVASSMAAGGLAHLCQATTQQVLIASEIAMEHHLGLTCDPVGGLVQIPCIERNVLGAIKAISASKLALEDEYKPKVSLDEVIATMYATGKDMNEKYKETSLGGLAKTLKC
MASFVTSKRDFRARAHSNPLNDAEFLVPEDPLRFDWSPFIPDVGSHPIDYVDLGCGYGGLLCELSIAFPNKYMLGMEIRDRVASYCVTKLEELRRLNSKGYRNIGFIRTNCMKFLPFYFPPSSVEKFFICFPDPHFKKKKHRQRLVSLRFLSEAAYCLRPGGMIYIVTDVEELFAWMTNLFAQHPLFLTMDKELVKQQDVLLPYLLNHTDEAQRMKRRGQDTPYWNVFQRKTVFC
MASIELRNVQTELAAKNLQFKVLTEKFLEQRKELFDAKKTDSNVEYVECLSEKLRVATERISDLEKETKEGKQVANEEIGRLEKLLREAQQKRDAKIDESYQTFLRIELLVANLGESTDPENEKRIKNLMPAAKTGIPPEGVLRLTINALDSAARESKKKTMAIESLTKQVDDANKLTEVYMKRLEELEDKHRFEEALTLKIQAMMIETTGQLEAQKKIIADLQKKNDDLMKEEEGEEDYEEEENYEVEEDFEDEEEYDEEGEEEDYE

Soluble on expression in E. coli, soluble:
MARMNRPAPVEVTYKNMRFLITHNPTNATLNKFIEELKKYGVTTIVRVCEATYDTTLVEKEGIHVLDWPFDDGAPPSNQIVDDWLSLVKIKFREEPGCCIAVHSVAGLGRAPVLVALALIEGGMKYEDAVQFIRQKRRGAFNSKQLLYLEKYRPKMRLRFKDSNGHRNNCCIQ
MASKIEQPRWASKDSAAGAASTPDEKIVLEFMDALTSNDAAKLIEYFAEDTMYQNMPLPPAYGRDAVEQTLAGLFTVMSIDAVETFHIGSSNGLVYTERVDVLRALPTGKSYNLSILGVFQLTEGKITGWRDYFDLREFEEAVDLPLRG
MASKPEKRVASSVFITLAPPRRDV
MASKRLGKQTVMLQNPPRITSTASIVGPKEGKGPLRLFFDNIIEDEMWGEKSWEKAESKLIRETFSKVLQKGNKTSQEIDYVISGDLLNQCIAANFGLRESDVPFFGVYGACSTIAESMSIGAMLVDGGFADNVVCITSSHFCSAEKQFRFPLELGTQRPPSAQWTVTGSGGVLISNDGSGPYITHITTGKIVDMGIKDANNMGAAMAPAAVDTIVTHFKDTGFTPESYDLILTGDLGAIGREICVELTREQGFNIENIYNDCGLMIYDREKQDTHAGGSGCGCAATVFAGFVYKKLMDGTLKNVLFVATGALLSPVSTQQGESIPSIAHAISITTSPER
MASLKVPSNVPLPEDDAEQLHKAFSGWGTNEKLIISILAHRNAAQRSLIRSVYAATYNEDLLKALDKELSSDFERAVMLWTLDPPERDAYLAKESTKMFTKNNWVLVEIACTRPALELIKVKQAYQARYKKSIEEDVAQHTSGDLRKLLLPLVSTFRYEGDDVNMMLARSEAKILHEKVSEKSYSDDDFIRILTTRSKAQLGATLNHYNNEYGNAINKNLKEESDDNDYMKLLRAVITCLTYPEKHFEKVLRLSINKMGTDEWGLTRVVTTRTEVDMERIKEEYQRRNSIPLDRAIAKDTSGDYEDMLVALLGHGDA
MASLLDKAKDFVADKLTAIPKPEGSVTDVDLKDVNRDSVEYLAKVSVTNPYSHSIPICEISFTFHSAGREIGKGKIPDPGSLKAKDMTALDIPVVVSYSILFNLARDVGVDWDIDYELQIGLTIDLPVVGEFTIPISSKGEIKLPTFKDFF
MASMTGGQQMGRGSMQNPSVTISVNANAGRHPINPAVYGLAYATTATLADLNVPLHRYGGNNTSRYNWQLNADNRGADWYFESIGEASSVAGERGDTFIANSQAAGAQAMITIPTIGWVARLGANRSKLASFSIAKYGAQSGNDWQWFPDAGNGVLTSGQNVTGNNPNDANTLVDSTFQQGWAQHLVSQWGTAAGGGLRYYILDNEPSIWFSTHRDVHPVGPTMDEIRDKMLDYGAKIKTVDPSALIVGPEEWGWSGYTLSGYDQQYGGLHGWSFMPDRNNHGGWDYLPWLLDQLRQNNLSTGRRLLDVFSVHYYPQGGEFGNDTSSAMQLRRNRSTRSLWDPNYIDETWINDKVQLIPRLKNWVSTYYPGTLTAITEYNWGAESHINGATTQADILGIFGREGLDMAARWTTPDTATPTYKAIKMYRNYDGNKSAFGDTSVTATAPNPDNVSAFAAVRSSDGALTVMVINKYLSGNTPATINLSNFTAQAQAQVWQLTAANTINHLSNVSLSGSSLSLTLPAQSVTLLVIPAST
MASVAAARAVPVGSGLRGLQRTLPLVVILGATGTGKSTLALQLGQRLGGEIVSADSMQVYEGLDIITNKVSAQEQRICRHHMISFVDPLVTNYTVVDFRNRATALIEDIFARDKIPIVVGGTNYYIESLLWKVLVNTKPQEMGTEKVIDRKVELEKEDGLVLHKRLSQVDPEMAAKLHPHDKRKVARSLQVFEETGISHSEFLHRQHTEEGGGPLGGPLKFSNPCILWLHADQAVLDERLDKRVDDMLAAGLLEELRDFHRRYNQKNVSENSQDYQHGIFQSIGFKEFHEYLITEGKCTLETSNQLLKKGIEALKQVTKRYARKQNRWVKNRFLSRPGPIVPPVYGLEVSDVSKWEESVLEPALEIVQSFIQGHKPTATPIKMPYNEAENKRSYHLCDLCDRIIIGDREWAAHIKSKSHLNQLKKRRRLDSDAVNTIESQSVSPDHNKEPKEKGSPGQNDQELKCSV
MASYKGLIVDVNGRSHENNLAHRTREIDRERLIVRRGQPFSITLQCSDSLPPKHHLELVLHLGKRDEVVIKVQKEHGARDKWWFNQQGAQDEILLTLHSPANAVIGHYRLAVLVMSPDGHIVERADKISFHMLFNPWCRDDMVYLPDESKLQEYVMNEDGVIYMGTWDYIRSIPWNYGQFEDYVMDICFEVLDNSPAALKNSEMDIEHRSDPVYVGRTITAMVNSNGDRGVLTGRWEEPYTDGVAPYRWTGSVPILQQWSKAGVRPVKYGQCWVFAAVACTVLRCLGIPTRPITNFASAHDVDGNLSVDFLLNERLESLDSRQRSDSSWNFHCWVESWMSREDLPEGNDGWQVLDPTPQELSDGEFCCGPCPVAAIKEGNLGVKYDAPFVFAEVNADTIYWIVQKDGQRRKITEDHASVGKNISTKSVYGNHREDVTLHYKYPEGSQKEREVYKKAGRRVTEPSNEIAEQGRLQLSIKHAQPVFGTDFDVIVEVKNEGGRDAHAQLTMLAMAVTYNSLRRGECQRKTISVTVPAHKAHKEVMRLHYDDYVRCVSEHHLIRVKALLDAPGENGPIMTVANIPLSTPELLVQVPGKAVVWEPLTAYVSFTNPLPVPLKGGVFTLEGAGLLSATQIHVNGAVAPSGKVSVKLSFSPMRTGVRKLLVDFDSDRLKDVKGVTTVVVHKKYRSLITGLHTD
MATAEVLNIGKKLYEGKTKEVYELLDSPGKVLLQSKDQITAGNAARKNHLEGKAAISNKITSCIFQLLQEAGIKTAFTRKCGETAFIAPQCEMIPIEWVCRRIATGSFLKRNPGVKEGYKFYPPKVELFFKDDANNDPQWSEEQLIAAKFCFAGLLIGQTEVDIMSHATQAIFEILEKSWLPQNCTLVDMKIEFGVDVTTKEIVLADVIDNDSWRLWPSGDRSQQKDKQSYRDLKEVTPEGLQMVKKNFEWVAERVELLLKSESQCRVVVLMGSTSDLGHCEKIKKACGNFGIPCELRVTSAHKGPDETLRIKAEYEGDGIPTVFVAVAGRSNGLGPVMSGNTAYPVISCPPLTPDWGVQDVWSSLRLPSGLGCSTVLSPEGSAQFAAQIFGLSNHLVWSKLRASILNTWISLKQADKKIRECNL
